B1: Protein MKS1 (Arabidopsis thaliana (Mouse-ear cress)), Q8LGD5 (parent)
chain: MDPSEYFAGGNPSDQQNQKRQLQICGPRPSPLSVHKDSHKIKKPPKHPAPPPNRDQPPPYIPREPVVIYAVSPKVVHATASEFMNVVQRLTGISSGVFLESGGGGDVSPAARLASTENASPRGGKEPAARDETVEINTAMEEAAEFGGYAPGILSPSPALLPTASTGIFSPMYHQGGMFSPAIPLGLFSPAGFMSPFRSPGFTSLVASPTFADFFSHIWDQD
partner: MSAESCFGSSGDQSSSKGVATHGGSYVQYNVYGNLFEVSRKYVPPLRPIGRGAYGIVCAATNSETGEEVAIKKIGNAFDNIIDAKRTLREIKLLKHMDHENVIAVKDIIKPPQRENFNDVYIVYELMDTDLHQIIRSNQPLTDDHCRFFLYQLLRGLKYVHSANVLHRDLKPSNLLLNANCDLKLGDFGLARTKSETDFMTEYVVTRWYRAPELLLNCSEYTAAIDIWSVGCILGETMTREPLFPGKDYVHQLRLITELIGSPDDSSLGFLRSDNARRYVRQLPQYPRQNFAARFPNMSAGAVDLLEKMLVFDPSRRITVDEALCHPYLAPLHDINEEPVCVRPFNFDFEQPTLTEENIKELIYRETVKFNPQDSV

Variants of: B1
Details: with mpk4_arath MPK4, Q39024

Variant | effect of a mutation on the interaction
S30A | decreasing interaction
